From patent publication US20060134801A1, “Methods and compositions involving MDA-7” (Board of Regents, The University of Texas System, priority 2003, published 2006)

How the values were obtained:
HUVEC and HMVEC = assay: Endothelial cell proliferation assay (trypan blue); assay type: cell-based, human; details: 1, 5, 10, 50 ng/ml; 1 ng/ml bFGF; vs PBS
Description: To test the effect of sMDA-7 protein on cell proliferation, endothelial cells (HUVEC, HMVEC) were serum-starved overnight. The next day, cells were seeded in 2-well chamber slides (1−10^4/well). The cells were allowed to adhere and spread for 4-6 h, and fresh medium containing 1 ng/ml of bFGF as a proangiogenic stimulator, and various concentrations of sMDA-7/IL-24 (1, 5, 10, and 50 ng/ml) was added. Cells treated with PBS served as controls. Cells were then harvested 3 days after treatment and cell proliferation determined by trypan blue exclusion assay method as previously described (Saeki et aL, 2000). The effect of sMDA-7 on lung tumor cell (H1299, and A549) proliferation was also evaluated. The experimental conditions were the same as described above for endothelial cells except that tumor cells were not stimulated with bFGF.

HUVEC = assay: IP-10 and IFN-γ production by ELISA; assay type: cell-based, human; details: 10 ng/ml; 48 h period
Description: Furthermore, IFN-γ is a potent inducer of IP-10 (Majumder et al., 1998). […] Studies were conducted to determine whether the antiangiogenic activity of sMDA-7 was mediated by IFN-γ or IP-10. HUVEC were seeded in 6-well plates (1×10^5/well) and treated with sMDA-7 (10 ng/ml). Cell culture supernatant was collected at 6 h, 24 h, and 48 h after treatment, centrifuged at 1200 rpm, and analyzed for IP-10 and IFN-γ protein production using commercially available ELISA kits. Assays were performed as recommended by the manufacturer (R&D systems, Minneapolis, Minn.). […] Cells treated with PBS served as negative controls in these experiments. Samples were analyzed in quadruplicate, and data represented as the average value for each concentration of sMDA-7 tested.

[1] = tested on: bFGF-induced angiogenesis; assay: In vivo Matrigel plug angiogenesis assay; set-up: species or system athymic nude mice; details: 12.5 ng in Matrigel with 60 ng bFGF; 10 days
Description: To determine the antiangiogenic activity of sMDA-7, an in vivo angiogenesis assay was performed. Briefly, sMDA-7 (12.5 ng) and bFGF (60 ng) was mixed with 500 μl of Matrigel (Beckton Dickinson, Bedford, Mass.) on ice and injected subcutaneously into athymic nude mice. Animals receiving Matrigel containing only bFGF (60 ng) served as positive controls and animals receiving Matrigel containing no growth factor served as negative controls. Each group comprised of five animals and the experiments were performed twice. Animals were sacrificed 10 days after injection. The Matrigel plugs were recovered, photographed, and subjected to hemoglobin analysis as previously described (Pessaniti et al., 1992).

[2] = tested on: MiaPaCa2 pancreatic cancer cells; assay: MDA-7 protein on pancreatic cancer cells: STAT3 activation, killing; assay type: cell-based, human
Description: MiaPaCa2 pancreatic cancer cells were treated with purified recombinant human MDA-7 protein, as described in Example 11. By immunofluorescence, substantial activation (phosphorylation) of STAT3 and concomitant movement of p-STAT3 to the nucleus were observed. The STAT3 activation was blocked in the presence of anti-MDA-7 antibodies.

A375.S2 = assay: Trypan blue viability; assay type: cell-based, human; details: 40 ng/ml, 3 days
Text: (§1) rhMDA-7 (IL-24) protein was purified from 293-mda7 cells using affinity chromatography. Various lots of protein ranged from 30% ->80% purity based upon silver stain. The rhMDA-7 protein was applied to melanoma cell lines, and cells assessed for viability using the Trypan blue assay. […] Treatment of melanoma cells with rhMDA-7 results in rapid activation (via phosphorylation) of STAT3. The cytotoxicity observed in melanoma cells is inhibited by anti-MDA-7 antibodies.
(§2) The mechanism of the anti-tumor activity of rhMDA-7 was also evaluated. Melanoma cells were treated with rhMDA-7 protein and assessed for apoptosis using the TUNEL assay. […] These studies were performed with purified rhMDA-7 protein. The melanoma cells have also been treated with supernatant from 293-mda7 cells or control 293 cells. Only the 293-mda7 supernatant causes cell killing.

A375 = assay: Trypan blue viability; assay type: cell-based, human; details: 40 ng/ml, 3 days
Text: as §1, §2

MeWo = assay: Trypan blue viability; assay type: cell-based, human; details: 40 ng/ml, 3 days
Text: as §1, §2

SK-Mel-1 = assay: Trypan blue viability; assay type: cell-based, human; details: 40 ng/ml, 3 days
Text: as §1, §2

WM35 = assay: Trypan blue viability; assay type: cell-based, human; details: 40 ng/ml, 3 days
Text: as §1, §2

WM793 = assay: Trypan blue viability; assay type: cell-based, human; details: 40 ng/ml, 3 days
Text: as §1, §2

PAC1 SMC = assay: Cell death after recombinant MDA-7; assay type: cell-based, rat
Description: Cell viability was determined using the Trypan-blue exclusion assay. Briefly, total cells (suspension+trypsinized) were mixed 1:1 with Trypan blue solution (Gibco-BRL) and then observed under a hemocytometer via light microscopy. The percent of blue cells (dead cells) were counted (an average count of 3-5 fields were made).
Cells are plated in chamber slides and treated with MDA-7 protein for 60 minutes and then washed thoroughly with PBS (3×). The cells are then fixed with methanol:acetic acid (95:5 vol:vol) and stained with anti-pStat3 monoclonal antibody (1:1000 dilution; Cell Signalling) for 1 h at 4° C. The cells are then washed 3× with PBS and treated with secondary antibody (1:1000 dilution; Texas Red-conjugated-Rabbit anti mouse IgG; Sigma) for 1 h at 4° C. The cells are then washed and examined under fluorescence microscopy.

HUVECs = assay: Clonogenic survival of endothelial cells after irradiation; assay type: cell-based, human; details: MDA-7 protein 10 ng/ml; angiostatin, endostatin 100 ng/ml; 12 h before irradiation
Description: (§3) Twelve hours after seeding HUVECs in 4-well plates (Nunc, Roskilde, Denmark), medium was replaced with serum/growth factor-free medium. After serum/growth factor starvation for 12 hours, cells were treated with complete medium containing either MDA-7 protein (10 ng/ml) (removed from cultures of 293 cells), angiostatin (100 ng/ml), or endostatin (100 ng/ml). Twelve hours later, cells were irradiated with ^137CS unit (3.4 Gy/min) at room temperature, trypsinized and counted. Known numbers of cells were replated in 60 mm culture dishes and incubated to allow macroscopic colony development. Colonies were counted after 14 days, and the percent plating efficiency and surviving fractions following given treatments were calculated based on the survival of non-irradiated cells.

[3] = tested on: A549 cells and CCD16 cells; assay: Clonogenic survival with MDA-7 conditioned medium and radiation; assay type: cell-based, human; details: 10 ng/ml
Description: FIG. 60. Clonogenic survival of A549 cells (A) and CCD16 cells (B). Cells were serum starved for 12 hours and treated with conditioned medium containing mda7 protein (10 ng/ml). Twelve hours later, cells were irradiated, harvested and plated in regular medium. After incubation for 14 days, colonies were counted and survival.
as §3

B1: sMDA-7: soluble secreted human MDA-7 (IL-24) protein purified from stably transfected 293-mda-7 cells (protein)
chain: AQGQEFHFGPCQVKGVVPQKLWEAFWAVKDTMQAQDNITSARLLQQEVLQNVSDAESCYLVHTLLEFYLKTVFKNYHNRTVEVRTLKSFSTLANNFVLIVSQLQPSQENEMFSIRDSAHRRFLLFRRAFKQLDVEAALTKALGEVDILLTWMQKFYKL
B1 was tested. Which antiproliferative activity (HUVEC and HMVEC) did it give?
Its antiproliferative activity is “no significant antiproliferative activity”.

And the “induced secretion of IFN-γ” value (HUVEC)?
Its value is under 30 pg/mL.

What about the “induced secretion of IP-10” value (HUVEC) of the same molecule?
Its value is under 32 pg/mL.

What about the “bFGF-induced angiogenesis (hemoglobin)” value [1] of the same molecule?
The value was “significantly inhibited”.

And the “killing of MiaPaCa2 cells” value [2]?
The value was “dose-dependent killing”.

And the “time to evident STAT3 activation” value [2]?
Its value is at most 30 min.

What about the “% Dead” value (A375.S2) of the same molecule?
The value was 22.2%.

What about the “% Dead” value (A375) of the same molecule?
Its value is 26.6%.

And the “% Dead” value (MeWo)?
The value was 20%.

And the “% Dead” value (SK-Mel-1)?
Its value is 5.2%.

What about the “% Dead” value (WM35) of the same molecule?
The value was 17.6%.

What about the “% Dead” value (WM793) of the same molecule?
Its value is 5.2%.

What about the cell death (PAC1 SMC) of the same molecule?
The cell death was “No statistically significant increase in cell death”.

And the “radiosensitization of HUVECs” value (HUVECs)?
The value was “sensitized”.

What about the radiosensitizing effects [3] of the same molecule?
Its radiosensitizing effects is “does not produce radiosensitizing effects”.
